Molecular target: FcRn-µ2m fusion protein (human β2m fused by (Gly4Ser)3 to the extracellular domain of human FcRn, His-tagged) (human) (UniProt P61769)
Assay: ELISA on coated FcRn-β2m fusion, pH 6; KD estimated by saturation binding fit

Chain of UniProt P61769 (P61769 other isoform, or with tags, fused parts or gaps limits assumed): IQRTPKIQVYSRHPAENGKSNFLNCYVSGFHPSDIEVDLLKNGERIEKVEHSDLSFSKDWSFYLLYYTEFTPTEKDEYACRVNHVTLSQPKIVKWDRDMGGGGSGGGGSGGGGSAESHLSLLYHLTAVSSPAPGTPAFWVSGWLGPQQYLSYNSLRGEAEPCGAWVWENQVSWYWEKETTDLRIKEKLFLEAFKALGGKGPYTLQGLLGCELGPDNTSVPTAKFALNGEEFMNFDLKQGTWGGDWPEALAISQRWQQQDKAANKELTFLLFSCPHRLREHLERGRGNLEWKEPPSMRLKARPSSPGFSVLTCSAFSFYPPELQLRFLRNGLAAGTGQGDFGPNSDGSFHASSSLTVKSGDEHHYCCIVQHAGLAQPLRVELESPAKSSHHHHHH

Kd: 900 nM
Substance: Trastuzumab IgG (antibody)

Reference: patent publication US20240076381A1
